Residue numbers refer to the chain shown, from its start.
Legend:
[1] = biological target: T1, purified KRAS (Homo sapiens (assumed), isoform 2B …, UniProt P01116-2, biotin (chemically labelled with EZ-link-Sulfo-NHS-biotin) in the BLI assay only)
[2] = biological target: T1, purified KRAS; assay: BLI; biotinylated KRAS immobilised on streptavidin biosensors, KDCs (TKD, TKDm) in solution in a 2-fold dilution series; Octet Red96, 30 °C, PBST (1x PBS, 0.1% Tween 20); 100 s association, 200 s dissociation; 1:1 model, global fit; settings: both partners purified
[3] = biological target: T2, purified HRAS (Homo sapiens (assumed), UniProt P01112); assay: BLI; TKD with purified HRAS or NRAS; Octet Red96, 30 °C, PBST; which partner was on the biosensor is not clearly told; settings: both partners purified
T2 construct: HRAS, purified, bought; Catalogue numbers are printed in the order HRAS/NRAS; source: bought: MedChemExpress

[4] = biological target: T3, purified NRAS (Homo sapiens (assumed), UniProt P01111); assay: as above; settings: both partners purified
T3 construct: NRAS, purified, bought; Catalogue numbers are printed in the order HRAS/NRAS; source: bought: MedChemExpress
T3 sequence (P01111 whole entry): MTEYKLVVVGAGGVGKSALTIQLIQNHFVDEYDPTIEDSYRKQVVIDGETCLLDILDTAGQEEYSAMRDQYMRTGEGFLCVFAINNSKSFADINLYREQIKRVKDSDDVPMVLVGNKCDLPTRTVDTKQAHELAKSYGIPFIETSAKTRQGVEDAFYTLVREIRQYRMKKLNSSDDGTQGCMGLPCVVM

T1 sequence (P01116 whole entry, canonical isoform): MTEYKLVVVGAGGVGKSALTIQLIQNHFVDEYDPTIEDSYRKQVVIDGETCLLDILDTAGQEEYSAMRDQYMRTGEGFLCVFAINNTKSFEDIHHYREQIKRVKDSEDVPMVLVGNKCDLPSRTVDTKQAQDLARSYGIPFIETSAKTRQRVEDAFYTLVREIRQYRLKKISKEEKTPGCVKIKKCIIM
T2 sequence (P01112 whole entry): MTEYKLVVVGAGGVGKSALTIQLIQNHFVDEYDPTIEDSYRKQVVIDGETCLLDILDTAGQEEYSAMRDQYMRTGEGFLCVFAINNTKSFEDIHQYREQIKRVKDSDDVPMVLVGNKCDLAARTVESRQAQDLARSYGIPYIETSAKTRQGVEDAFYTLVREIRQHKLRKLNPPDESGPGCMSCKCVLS

B1: 2 (VHH)
VHH: DVQLQESGGGLVQAGGSLRLSCVAPARTVSTYPTGWFRRAPGKEREFVARINFSGGITNYADSVKGRFTISRNNTKNTVYLQMNSLKPEDTAVYYCGGGSTTWADGIPINFDYWGQGTQVTVSS
binding result [1]: binds

B2: 3 (VHH)
VHH: DVQLQESGGGLVQPGGSLRLNCAASGFVFSDYAMSWVRQAPGKGLEWVSAIYGGGYNPIYTDSVKGRFTISRDNAKNTLYLQIRTLKPEDTGVYYCAKEQTFGTFLNDTYYSPSYYDWGQGTQVTVSS
binding result [1]: binds

B3: 4 (VHH)
VHH: DVQLQESGGGLVQPGGSLRLSCAASGFTFGNTGMSWVRQAPGKGLEWVSGISSGGAFSFYADSVKGRFTGSDNSAKNTVYLQMNSLQPEDTGVYYCAAGPRVALLTTPWTNPQSYHYWGQGTQVTVSS
binding result [1]: binds

B4: 5 (VHH)
VHH: B2 VHH with T61A
binding result [1]: binds

B5: 6 (VHH)
VHH: DVQLQESGGGLVEPGGSLRLSCAASGSIFGLDVMGWYRQAPGKQRELVAIITRGGTANYADSGKGRFTISSDYAKKTVSLQMGSLIPEDTAVYYCSALVLGTNYWGQGTQVTVSS
binding result [1]: binds

B6: tumor-targeting KRAS degrader (TKD) (VHH)
VHH: B1 VHH with P25S, A26G, V29F, R39Q, F53L, N73D, T75A, D105G, I109T
notes: cancer cell-penetrating peptide BR2 (derived from buforin IIb); KRAS nanobody from an alpaca immunised with KRAS (1-169 aa); Fusion of BR2, KRAS nanobody and CTM; also called KDC 1; KRAS degrader candidate 1; source: for co-IP the purified protein was added to living cells
Kd [2]: 6.57 nM
binding result [3]: no binding
binding result [4]: no binding

B7: TKDm (negative control of TKD with mutant CTM peptide) (VHH)
VHH: B1 VHH with P25S, A26G, V29F, R39Q, F53L, N73D, T75A, D105G, I109T
notes: cancer cell-penetrating peptide BR2 (derived from buforin IIb); KRAS nanobody, same as in TKD; also called TKDm-His; source: for co-IP the purified protein was added to living cells
Kd [2]: 6.6 nM
